The values that follow are results of earlier work, collected in US12544428B2, “Controlled-release CNP agonists with reduced side-effects” (ASCENDIS PHARMA GROWTH DISORDERS A/S, priority 2016, dated 2026).

Bridge positions count the residues as written; N and C are the ends. Ends that are not written are not given here.

For data set [1] the following is noted: Phase 1 study, healthy volunteers; cited from earlier work.
For data set [2] the following is noted: after iv administration; cited from earlier work.

For “BMN-111: a CNP variant with increased NEP resistance in development for the treatment of achondroplasia (PGQEHPNARKYKGANKKGLSKGCFGLKLDRIGSMSGLGC; disulfide 23-39; chains of the INN, looked up)”, in data set [1], the hypotension entry was “mild hypotension”.

As usually defined, the half-life is how long it takes for the measured level to halve. For the molecule `CC[C@H](C)[C@@H]1NC(=O)[C@H](CCCNC(=N)N)NC(=O)[C@H](CC(=O)O)NC(=O)[C@H](CC(C)C)NC(=O)[C@H](CCCCN)NC(=O)[C@H](CC(C)C)NC(=O)CNC(=O)[C@H](Cc2ccccc2)NC(=O)[C@@H](NC(=O)CNC(=O)[C@H](CCCCN)NC(=O)[C@H](CO)NC(=O)[C@H](CC(C)C)NC(=O)CN)CSSC[C@@H](C(=O)O)NC(=O)CNC(=O)[C@H](CC(C)C)NC(=O)CNC(=O)[C@H](CO)NC(=O)[C@H](CCSC)NC(=O)[C@H](CO)NC(=O)CNC1=O` [CNP-22], the half-life in data set [2] is recorded as 2 min.
